{"source": "paper PMC11154705", "about": "“Spatio-temporal control of asymmetric septum positioning during sporulation in Bacillus subtilis” (The Journal of Biological Chemistry, 2024)", "target": "the molecule itself", "test": "SEC; Superdex S200 16/60 in 50 mM Tris-HCl pH 8.5, 300 mM NaCl; proteins applied separately or mixed (350 ul RefZ 28.8 uM premixed with 350 ul cyt-SpoIIE 15.5 uM, dialyzed overnight, 500 ul loaded); fractions analysed by anti-His Western blot", "note": "Values joined by “and” are separate entries in the source; they are usually repeats but may differ in a detail not shown here. Equal entries are not always repeated."}
{"protein": "His-tagged cytosolic part of SpoIIE (375-827 aa) (domain or fragment, B. subtilis, UniProt P37475 375-827, looked up, SpoIIE, Bacillus subtilis, cytosolic part, residues 375-827; Elutes as dimers, tetramers and higher oligomers; also called cyt-SpoIIE; not shown: His-tag, N-terminal, kept) YQASDEQTDDSEVDLFLSKITEHSCQTCYKKNRCWVQNFDKTYDLMKQVMLETEEKEYASNRRLKKEFQQYCSKSKQVEELIEDELAHHHAHLTLKKKVQDSRRLVAEQLLGVSEVMADFSREIKREREQHFLQEEQIIEALQHFGIEIQHVEIYSLEQGNIDIEMTIPFSGHGESEKIIAPMLSDILEEQILVKAEQHSPHPNGYSHVAFGSTKSYRVSTGAAHAAKGGGLVSGDSYSMMELGARKYAAAISDGMGNGARAHFESNETIKLLEKILESGIDEKIAIKTINSILSLRTTDEIYSTLDLSIIDLQDASCKFLKVGSTPSFIKRGDQVMKVQASNLPIGIINEFDVEVVSEQLKAGDLLIMMSDGIFEGPKHVENHDLWMKRKMKGLKTNDPQEIADLLMEEVIRTRSGQIEDDMTVVVVRIDHNTPKWASIPVPAIFQNKQEIS", "values": [{"measurement": "stoichiometry N", "value": "2 and 4"}]}
